# Test results as given in patent US12012599B2, “Compositions and methods for modulating left-right differentiation factor (LEFTY) and bone morphogenic factor (BMP)” (CZ Biohub SF LLC, priority 2018, dated 2024).
# B1: CRIPTO-1: soluble EGF-CFC Nodal co-receptor (protein, UniProt P13385 31-150, looked up)
# Protein Cripto: LGHQEFARPSRGYLAFRDDSIWPQEEPAIRPRSSQRVPPMGIQHSKELNRTCCLNGGTCMLGSFCACPPSFYGRNCEHDVRKENCGSVPHDTWLPKKCSLCKCWHGQLRCFPQAFLPGCD
# B2: NODAL: TGF-β family ligand that induces phosphorylation of SMAD2/3 (protein, UniProt Q96S42 238-347, looked up)
# Nodal homolog: HHLPDRSQLCRKVKFQVDFNLIGWGSWIIYPKQYNAYRCEGECPNPVGEEFHPTNHAYIQSLLKRYQPHRVPSTCCAPVKTKPLSMLYVDNGRVLLDHHKDMIVEECGCL
# System: mammary epithelial cells
# Assay: 3D organotypic mammary organoid formation
# Format: cell-based, mouse
# Conditions: for organoid formation (frequency, number of colonies): Wnt-dependent organoid culture
# Experimental: FIGS. 8A-8D. Autocrine and paracrine effects of NODAL and LEFTY1 in mammary epithelial cell populations. […] The sorted cells were grown in the 3D organotypic assays to test their organoid formation potential in the presence of NODAL. […] Each dot represents an organoid (n=3). […] Data are represented as median±S.D. Statistical analysis, One-way ANOVA with Dunnet's adjustment, **p<0.01.
# FIGS. 9A-9F. Opposing effects of LEFTY1 and BMP7 in mammary organoid formation. […] Data are represented as median±S.D. Statistical analysis, one-way ANOVA with Dunnet's adjustment, *p<0.05; **p<0.01; ***p<0.001.
# Since LEFTY1 and BMP7 were able to affect the branching of mammary glands, we hypothesized that the LEFTY1/BMP7 signaling axis may affect the proliferation of mammary epithelial cells. We exposed freshly dissociated mammary epithelial cells to NODAL, LEFTY1, BMP7 and CRIPTO-1 in a modified Wnt-dependent in vitro organoid culture system that was optimized for progenitor cell propagation (Zeng & Nusse, Cell Stem Cell 6, 568-577 (2010) and Jamieson et al., Development 144, 1065-1071 (2017)). In Xenopus, Wnt signaling controls the expression of Nodal and Cripto-1 during gastrulation. Consistent with the evolutionary conservation of the interaction between the Nodal and Wnt pathways (Branford et al., Curr Biol 12, 2136-2141 (2002)), NODAL had no effect on organoid formation in our Wnt-driven culture system (FIG. 8A).
# In organoid cultures, the basal cells give rise to mixed phenotype colonies of luminal and basal cells. To prevent the formation of LEFTY1-expressing cells during organoid formation, genetic knockdown of LEFTY1 was done. To knock-down mouse LEFTY1, pSICO-R lentiviral vector was used (Ventura, PNAS, 2004). Different shRNAs were designed and cloned into pSICO-R. The target sequences of the shRNAs cloned were GGACAAGGCTGATGTGGAA (SEQ ID NO: 14) and GCAGGTTCCTGGTGTCAGA (SEQ ID NO: 15). The efficiency of knock-down was tested by transfecting HEK293T cells with pSICO-R-shLEFTY1 constructs with pEGFP-C3-LEFTY1 at 1:4 and 1:20 ratio. Decrease on GFP signal was used to calculate the percentage of inhibition of the shLEFTY sequences. […] (p<0.001 and p<0.01, respectively) (FIGS. 8C-8D and FIGS. 9E-9F).
molecule,measurement,setting,value
B1,"organoid formation (frequency, number of colonies)",,did not have a significant effect
same,effect on LEFTY1's increase of organoid formation,in combination with LEFTY1,enhanced
B2,"organoid formation (frequency, number of colonies)",,no effect
